Experimental data taken from ChEMBL document CHEMBL3352481, “Synthesis of {[5-(adenin-9-yl)-2-furyl]methoxy}methyl phosphonic acid and evaluations against human adenylate kinases” (Bioorg Med Chem Lett, 2014).

Legend:
Settings in all cases: Homo sapiens; call rule not given here
[1] = system: Nc1ncnc2c1ncn2CCOCP(=O)(O)O; assay: (§1) Activity of recombinant AK2 (unknown origin) assessed as ADP formation by spectroscopic pyruvate kinase/lactate dehydrogenase coupled assay
[2] = system: Nc1ncnc2c1ncn2-c1ccc(COCP(=O)(O)O)o1; assay: as §1
[3] = system: Nc1ncnc2c1ncn2[C@@H]1O[C@H](COP(=O)(O)O)[C@@H](O)[C@H]1O; assay: as §1
[4] = system: Nc1ncnc2c1ncn2[C@H]1C[C@H](O)[C@@H](COP(=O)(O)O)O1; assay: as §1
[5] = system: Nc1ncnc2c1ncn2-c1ccc(CO)o1; assay: as §1
[6] = system: C[C@H](Cn1cnc2c(N)ncnc21)OCP(=O)(O)O; assay: as §1
[7] = system: Nc1ncnc2c1ncn2CCOCP(=O)(O)O; assay: (§2) Ratio of Kcat to Km for recombinant AK2 (unknown origin)
[8] = system: Nc1ncnc2c1ncn2-c1ccc(COCP(=O)(O)O)o1; assay: as §2
[9] = system: Nc1ncnc2c1ncn2[C@@H]1O[C@H](COP(=O)(O)O)[C@@H](O)[C@H]1O; assay: as §2
[10] = system: Nc1ncnc2c1ncn2[C@H]1C[C@H](O)[C@@H](COP(=O)(O)O)O1; assay: as §2
[11] = system: Nc1ncnc2c1ncn2-c1ccc(CO)o1; assay: as §2
[12] = system: C[C@H](Cn1cnc2c(N)ncnc21)OCP(=O)(O)O; assay: as §2

Substance “Adenylate kinase 2, mitochondrial (Homo sapiens) (from UniProt P54819)” has a Km [1] of 6000 µM, a kcat [1] of 1.5 s⁻¹ and a Km [2] of 420 µM. The kcat [2] was 1.06 s⁻¹, the Km [3] was 380 µM and the kcat [3] was 80 s⁻¹. For the same substance, the Km [4] was 210 µM, the kcat [4] was 110 s⁻¹ and the Km [5] was “Not Active”. For the same substance, the kcat [5] was “Not Active”, the Km [6] was 3000 µM and the kcat [6] was 2.4 s⁻¹. It also gave a kcat/Km [7] of 250 ×10⁶ /M/s, a kcat/Km [8] of 0.025 ×10⁶ /M/s and a kcat/Km [9] of 0.21 ×10⁶ /M/s. For the same substance, the kcat/Km [10] was 0.5 ×10⁶ /M/s, the kcat/Km [11] was “Not Active” and the kcat/Km [12] was 800 M⁻¹ s⁻¹.
